The first series deals with T1, NGAL (UniProt P80188 21-198). Description: bead-based fluorescence binding (flow cytometry); PBSMCT: DPBS with 2.5 mM MgCl2, 0.9 mM CaCl2, 0.01% Tween 20; room temperature, 1 h; bound NGAL detected with iFluor 647 anti-His antibody (6 nM). The settings on record: protein: commercial; tags: C-terminal His-tag; hairpin (predicted).
T1 sequence (P80188 21-198): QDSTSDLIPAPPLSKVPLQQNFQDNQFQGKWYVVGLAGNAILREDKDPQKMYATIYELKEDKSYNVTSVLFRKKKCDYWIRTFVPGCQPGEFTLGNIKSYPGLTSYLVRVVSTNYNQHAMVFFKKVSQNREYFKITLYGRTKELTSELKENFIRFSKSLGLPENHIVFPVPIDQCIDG
Broadly, the Kd is the free concentration of one partner at which half of the binding sites on the other are occupied at equilibrium, for simple one-to-one binding. On to GAGGATTTGGTGGATAGTAAATC (ssDNA, 5' biotin) [G13.8 (G13_23)], for which the Kd was 1.5 nM.
Still for that read-out and setting: the same measure for ACGTTTTTGGTGGATAGCAAATG (ssDNA, 5' biotin) [G12.5 (G12_23)]: 11 nM.

The next series has as its target T1, NGAL. Description: bead-based fluorescence, 4-concentration estimate; PBSMCT: DPBS with 2.5 mM MgCl2, 0.9 mM CaCl2, 0.01% Tween 20; room temperature, 1 h; bound NGAL detected with iFluor 647 anti-His antibody (6 nM). To be noted: protein: commercial; tags: C-terminal His-tag.
For the molecule GTTTTTGGTGGATAGCAAA (ssDNA, 5' biotin) [G12.6], the Kd was < 32 nM.
Consider ACGTTTTTGGTGGATAGCAAATGCCAGGGCCCTTTTTTG (ssDNA, 5' biotin) [G12.1], for which the Kd is < 16 nM.
Still for that read-out and setting: to CAAGAGGATTTGGTGGATAGTAAATCTTTGC (ssDNA, 5' biotin) [G13.3] belongs < 8 nM; to ACGTTTTTGGTGGATAGCAAATGCCAGGGCC (ssDNA, 5' biotin) [G12.3], < 32 nM; to CAAGAGGATTTGGTGGATAGTAAATCTTTGCCTATCCAG (ssDNA, 5' biotin) [G13.1], < 16 nM.
On the same count and under the same terms, to GAGGATTTGGTGGATAGTAAATCTTTG (ssDNA, 5' biotin) [G13.4] belongs < 8 nM; to AGAGGATTTGGTGGATAGTAAAT (ssDNA, 5' biotin) [G13.7], < 16 nM; to AAGAGGATTTGGTGGATAGTAAATCTT (ssDNA, 5' biotin) [G13.5], < 8 nM.
Still for that read-out and setting: the same measure for CAAGAGGATTTGGTGGATAGTAAATCTTTGCCTAT (ssDNA, 5' biotin) [G13.2]: < 16 nM; for AGAGGATTTGGTGGATAGT (ssDNA, 5' biotin) [G13.11]: < 1020 nM.
Turning to ACGTTTTTGGTGGATAGCAAATGCCAGGGCCCTTT (ssDNA, 5' biotin) [G12.2], the Kd was < 32 nM.
On the same count and under the same terms, the same measure for TTTGGTGGATAGTAA (ssDNA, 5' biotin) [G13.12]: < 256 nM; for ACGTTTTTGGTGGATAGCAAATGCCAG (ssDNA, 5' biotin) [G12.4]: < 16 nM.

The series is the same for the next values; noted with them: protein: commercial; tags: C-terminal His-tag; hairpin (predicted).
On to GAGGATTTGGTGGATAGTAAATC (ssDNA, 5' biotin) [G13.8 (G13_23)], for which the Kd was < 8 nM.
Still for that read-out and setting: to ACGTTTTTGGTGGATAGCAAATG (ssDNA, 5' biotin) [G12.5 (G12_23)] belongs < 16 nM.

The record behind these values is publication PMC8062585, “Machine learning guided aptamer refinement and discovery”.
